Laboratory results from patent publication US20210388087A1 (Chugai, published 2021).

B1: H183/L072 VL V51L (antibody, name in Kabat numbering, V domains shown)
VH: QVQLVESGGGLVQPGRSLRLSCAASGFTFSNAWMHWVRQAPGKGLEWVAQIKDKGNAYAAYYAPSVKGRFTISRDDSKNSIYLQMNSLKTEDTAVYYCHYVHYASASTVLPAFGVDAWGQGTTVTVSS
VL: DIVMTQSPLSLPVTPGEPASISCQASQELVHMNRNTYLHWYQQKPGQAPRLLIYKLSNRFPGVPDRFSGSGSGTDFTLKISRVEAEDVGVYYCAQGTSVPFTFGQGTKLEIK
notes: Dual-Ig
B2: H183/L072 VL V94P (antibody, name in Kabat numbering, V domains shown)
VH: QVQLVESGGGLVQPGRSLRLSCAASGFTFSNAWMHWVRQAPGKGLEWVAQIKDKGNAYAAYYAPSVKGRFTISRDDSKNSIYLQMNSLKTEDTAVYYCHYVHYASASTVLPAFGVDAWGQGTTVTVSS
VL: DIVMTQSPLSLPVTPGEPASISCQASQELVHMNRNTYLHWYQQKPGQAPRLLIYKVSNRFPGVPDRFSGSGSGTDFTLKISRVEAEDVGVYYCAQGTSPPFTFGQGTKLEIK
notes: Dual-Ig
B3: H183/L072 VL V94L (antibody, name in Kabat numbering, V domains shown)
VH: QVQLVESGGGLVQPGRSLRLSCAASGFTFSNAWMHWVRQAPGKGLEWVAQIKDKGNAYAAYYAPSVKGRFTISRDDSKNSIYLQMNSLKTEDTAVYYCHYVHYASASTVLPAFGVDAWGQGTTVTVSS
VL: DIVMTQSPLSLPVTPGEPASISCQASQELVHMNRNTYLHWYQQKPGQAPRLLIYKVSNRFPGVPDRFSGSGSGTDFTLKISRVEAEDVGVYYCAQGTSLPFTFGQGTKLEIK
notes: Dual-Ig
B4: H183/L072 VL V51N (antibody, name in Kabat numbering, V domains shown)
VH: QVQLVESGGGLVQPGRSLRLSCAASGFTFSNAWMHWVRQAPGKGLEWVAQIKDKGNAYAAYYAPSVKGRFTISRDDSKNSIYLQMNSLKTEDTAVYYCHYVHYASASTVLPAFGVDAWGQGTTVTVSS
VL: DIVMTQSPLSLPVTPGEPASISCQASQELVHMNRNTYLHWYQQKPGQAPRLLIYKNSNRFPGVPDRFSGSGSGTDFTLKISRVEAEDVGVYYCAQGTSVPFTFGQGTKLEIK
notes: Dual-Ig
B5: H183/L072 VL V94D (antibody, name in Kabat numbering, V domains shown)
VH: QVQLVESGGGLVQPGRSLRLSCAASGFTFSNAWMHWVRQAPGKGLEWVAQIKDKGNAYAAYYAPSVKGRFTISRDDSKNSIYLQMNSLKTEDTAVYYCHYVHYASASTVLPAFGVDAWGQGTTVTVSS
VL: DIVMTQSPLSLPVTPGEPASISCQASQELVHMNRNTYLHWYQQKPGQAPRLLIYKVSNRFPGVPDRFSGSGSGTDFTLKISRVEAEDVGVYYCAQGTSDPFTFGQGTKLEIK
notes: Dual-Ig
B6: H183/L072 VL V51R (antibody, name in Kabat numbering, V domains shown)
VH: QVQLVESGGGLVQPGRSLRLSCAASGFTFSNAWMHWVRQAPGKGLEWVAQIKDKGNAYAAYYAPSVKGRFTISRDDSKNSIYLQMNSLKTEDTAVYYCHYVHYASASTVLPAFGVDAWGQGTTVTVSS
VL: DIVMTQSPLSLPVTPGEPASISCQASQELVHMNRNTYLHWYQQKPGQAPRLLIYKRSNRFPGVPDRFSGSGSGTDFTLKISRVEAEDVGVYYCAQGTSVPFTFGQGTKLEIK
notes: Dual-Ig
B7: H183/L072 VL V94I (antibody, name in Kabat numbering, V domains shown)
VH: QVQLVESGGGLVQPGRSLRLSCAASGFTFSNAWMHWVRQAPGKGLEWVAQIKDKGNAYAAYYAPSVKGRFTISRDDSKNSIYLQMNSLKTEDTAVYYCHYVHYASASTVLPAFGVDAWGQGTTVTVSS
VL: DIVMTQSPLSLPVTPGEPASISCQASQELVHMNRNTYLHWYQQKPGQAPRLLIYKVSNRFPGVPDRFSGSGSGTDFTLKISRVEAEDVGVYYCAQGTSIPFTFGQGTKLEIK
notes: Dual-Ig
B8: H183/L072 VL V51S (antibody, name in Kabat numbering, V domains shown)
VH: QVQLVESGGGLVQPGRSLRLSCAASGFTFSNAWMHWVRQAPGKGLEWVAQIKDKGNAYAAYYAPSVKGRFTISRDDSKNSIYLQMNSLKTEDTAVYYCHYVHYASASTVLPAFGVDAWGQGTTVTVSS
VL: DIVMTQSPLSLPVTPGEPASISCQASQELVHMNRNTYLHWYQQKPGQAPRLLIYKSSNRFPGVPDRFSGSGSGTDFTLKISRVEAEDVGVYYCAQGTSVPFTFGQGTKLEIK
notes: Dual-Ig
B9: H183/L072 VL V51M (antibody, name in Kabat numbering, V domains shown)
VH: QVQLVESGGGLVQPGRSLRLSCAASGFTFSNAWMHWVRQAPGKGLEWVAQIKDKGNAYAAYYAPSVKGRFTISRDDSKNSIYLQMNSLKTEDTAVYYCHYVHYASASTVLPAFGVDAWGQGTTVTVSS
VL: DIVMTQSPLSLPVTPGEPASISCQASQELVHMNRNTYLHWYQQKPGQAPRLLIYKMSNRFPGVPDRFSGSGSGTDFTLKISRVEAEDVGVYYCAQGTSVPFTFGQGTKLEIK
notes: Dual-Ig
B10: H183/L072 VL V51Q (antibody, name in Kabat numbering, V domains shown)
VH: QVQLVESGGGLVQPGRSLRLSCAASGFTFSNAWMHWVRQAPGKGLEWVAQIKDKGNAYAAYYAPSVKGRFTISRDDSKNSIYLQMNSLKTEDTAVYYCHYVHYASASTVLPAFGVDAWGQGTTVTVSS
VL: DIVMTQSPLSLPVTPGEPASISCQASQELVHMNRNTYLHWYQQKPGQAPRLLIYKQSNRFPGVPDRFSGSGSGTDFTLKISRVEAEDVGVYYCAQGTSVPFTFGQGTKLEIK
notes: Dual-Ig
B11: H183/L072 VL V94F (antibody, name in Kabat numbering, V domains shown)
VH: QVQLVESGGGLVQPGRSLRLSCAASGFTFSNAWMHWVRQAPGKGLEWVAQIKDKGNAYAAYYAPSVKGRFTISRDDSKNSIYLQMNSLKTEDTAVYYCHYVHYASASTVLPAFGVDAWGQGTTVTVSS
VL: DIVMTQSPLSLPVTPGEPASISCQASQELVHMNRNTYLHWYQQKPGQAPRLLIYKVSNRFPGVPDRFSGSGSGTDFTLKISRVEAEDVGVYYCAQGTSFPFTFGQGTKLEIK
notes: Dual-Ig
B12: H183/L072 VL V94N (antibody, name in Kabat numbering, V domains shown)
VH: QVQLVESGGGLVQPGRSLRLSCAASGFTFSNAWMHWVRQAPGKGLEWVAQIKDKGNAYAAYYAPSVKGRFTISRDDSKNSIYLQMNSLKTEDTAVYYCHYVHYASASTVLPAFGVDAWGQGTTVTVSS
VL: DIVMTQSPLSLPVTPGEPASISCQASQELVHMNRNTYLHWYQQKPGQAPRLLIYKVSNRFPGVPDRFSGSGSGTDFTLKISRVEAEDVGVYYCAQGTSNPFTFGQGTKLEIK
notes: Dual-Ig
B13: H183/L072 VL V94E (antibody, name in Kabat numbering, V domains shown)
VH: QVQLVESGGGLVQPGRSLRLSCAASGFTFSNAWMHWVRQAPGKGLEWVAQIKDKGNAYAAYYAPSVKGRFTISRDDSKNSIYLQMNSLKTEDTAVYYCHYVHYASASTVLPAFGVDAWGQGTTVTVSS
VL: DIVMTQSPLSLPVTPGEPASISCQASQELVHMNRNTYLHWYQQKPGQAPRLLIYKVSNRFPGVPDRFSGSGSGTDFTLKISRVEAEDVGVYYCAQGTSEPFTFGQGTKLEIK
notes: Dual-Ig
B14: H183/L072 VL V51W (antibody, name in Kabat numbering, V domains shown)
VH: QVQLVESGGGLVQPGRSLRLSCAASGFTFSNAWMHWVRQAPGKGLEWVAQIKDKGNAYAAYYAPSVKGRFTISRDDSKNSIYLQMNSLKTEDTAVYYCHYVHYASASTVLPAFGVDAWGQGTTVTVSS
VL: DIVMTQSPLSLPVTPGEPASISCQASQELVHMNRNTYLHWYQQKPGQAPRLLIYKWSNRFPGVPDRFSGSGSGTDFTLKISRVEAEDVGVYYCAQGTSVPFTFGQGTKLEIK
notes: Dual-Ig
B15: H183/L072 VL V51T (antibody, name in Kabat numbering, V domains shown)
VH: QVQLVESGGGLVQPGRSLRLSCAASGFTFSNAWMHWVRQAPGKGLEWVAQIKDKGNAYAAYYAPSVKGRFTISRDDSKNSIYLQMNSLKTEDTAVYYCHYVHYASASTVLPAFGVDAWGQGTTVTVSS
VL: DIVMTQSPLSLPVTPGEPASISCQASQELVHMNRNTYLHWYQQKPGQAPRLLIYKTSNRFPGVPDRFSGSGSGTDFTLKISRVEAEDVGVYYCAQGTSVPFTFGQGTKLEIK
notes: Dual-Ig
B16: H183/L072 VL V94H (antibody, name in Kabat numbering, V domains shown)
VH: QVQLVESGGGLVQPGRSLRLSCAASGFTFSNAWMHWVRQAPGKGLEWVAQIKDKGNAYAAYYAPSVKGRFTISRDDSKNSIYLQMNSLKTEDTAVYYCHYVHYASASTVLPAFGVDAWGQGTTVTVSS
VL: DIVMTQSPLSLPVTPGEPASISCQASQELVHMNRNTYLHWYQQKPGQAPRLLIYKVSNRFPGVPDRFSGSGSGTDFTLKISRVEAEDVGVYYCAQGTSHPFTFGQGTKLEIK
notes: Dual-Ig
B17: H183/L072 VL V94M (antibody, name in Kabat numbering, V domains shown)
VH: QVQLVESGGGLVQPGRSLRLSCAASGFTFSNAWMHWVRQAPGKGLEWVAQIKDKGNAYAAYYAPSVKGRFTISRDDSKNSIYLQMNSLKTEDTAVYYCHYVHYASASTVLPAFGVDAWGQGTTVTVSS
VL: DIVMTQSPLSLPVTPGEPASISCQASQELVHMNRNTYLHWYQQKPGQAPRLLIYKVSNRFPGVPDRFSGSGSGTDFTLKISRVEAEDVGVYYCAQGTSMPFTFGQGTKLEIK
notes: Dual-Ig
B18: H183/L072 VL V94K (antibody, name in Kabat numbering, V domains shown)
VH: QVQLVESGGGLVQPGRSLRLSCAASGFTFSNAWMHWVRQAPGKGLEWVAQIKDKGNAYAAYYAPSVKGRFTISRDDSKNSIYLQMNSLKTEDTAVYYCHYVHYASASTVLPAFGVDAWGQGTTVTVSS
VL: DIVMTQSPLSLPVTPGEPASISCQASQELVHMNRNTYLHWYQQKPGQAPRLLIYKVSNRFPGVPDRFSGSGSGTDFTLKISRVEAEDVGVYYCAQGTSKPFTFGQGTKLEIK
notes: Dual-Ig
B19: H183/L072 VL V94A (antibody, name in Kabat numbering, V domains shown)
VH: QVQLVESGGGLVQPGRSLRLSCAASGFTFSNAWMHWVRQAPGKGLEWVAQIKDKGNAYAAYYAPSVKGRFTISRDDSKNSIYLQMNSLKTEDTAVYYCHYVHYASASTVLPAFGVDAWGQGTTVTVSS
VL: DIVMTQSPLSLPVTPGEPASISCQASQELVHMNRNTYLHWYQQKPGQAPRLLIYKVSNRFPGVPDRFSGSGSGTDFTLKISRVEAEDVGVYYCAQGTSAPFTFGQGTKLEIK
notes: Dual-Ig
B20: H183/L072 VL V51P (antibody, name in Kabat numbering, V domains shown)
VH: QVQLVESGGGLVQPGRSLRLSCAASGFTFSNAWMHWVRQAPGKGLEWVAQIKDKGNAYAAYYAPSVKGRFTISRDDSKNSIYLQMNSLKTEDTAVYYCHYVHYASASTVLPAFGVDAWGQGTTVTVSS
VL: DIVMTQSPLSLPVTPGEPASISCQASQELVHMNRNTYLHWYQQKPGQAPRLLIYKPSNRFPGVPDRFSGSGSGTDFTLKISRVEAEDVGVYYCAQGTSVPFTFGQGTKLEIK
notes: Dual-Ig
B21: H183/L072 VL V94G (antibody, name in Kabat numbering, V domains shown)
VH: QVQLVESGGGLVQPGRSLRLSCAASGFTFSNAWMHWVRQAPGKGLEWVAQIKDKGNAYAAYYAPSVKGRFTISRDDSKNSIYLQMNSLKTEDTAVYYCHYVHYASASTVLPAFGVDAWGQGTTVTVSS
VL: DIVMTQSPLSLPVTPGEPASISCQASQELVHMNRNTYLHWYQQKPGQAPRLLIYKVSNRFPGVPDRFSGSGSGTDFTLKISRVEAEDVGVYYCAQGTSGPFTFGQGTKLEIK
notes: Dual-Ig

target: T1, Human CD137 ECD (human); assay: Biacore SPR, vs parent H183/L072
T1 construct: entry includes C-terminal His-tag and biotin acceptor peptide; also called human CD137 extracellular domain; 4-1BB
T1 sequence (chain, as listed by the source limits assumed): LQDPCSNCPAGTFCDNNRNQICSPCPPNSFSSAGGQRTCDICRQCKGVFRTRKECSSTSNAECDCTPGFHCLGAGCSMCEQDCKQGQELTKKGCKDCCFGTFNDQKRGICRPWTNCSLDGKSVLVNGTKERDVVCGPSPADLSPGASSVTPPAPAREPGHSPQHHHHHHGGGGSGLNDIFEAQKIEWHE

| Binder | fold change of affinity |
| --- | --- |
| B1 | 1.7 fold |
| B2 | 0.1 fold |
| B3 | 0.3 fold |
| B4 | 0.3 fold |
| B5 | 0 fold |
| B6 | 1.4 fold |
| B7 | 0.7 fold |
| B8 | 0.6 fold |
| B9 | 1 fold |
| B10 | 0.8 fold |
| B11 | 0 fold |
| B12 | 0.2 fold |
| B13 | 0 fold |
| B14 | 0.1 fold |
| B15 | 0.6 fold |
| B16 | 1.8 fold |
| B17 | 0.7 fold |
| B18 | 0.1 fold |
| B19 | 0.1 fold |
| B20 | 0 fold |
| B21 | 0 fold |
